Results as given in publication PMC12416549 (2024).

T1: TNFR1 (Homo sapiens, UniProt P19438)
T1 chain: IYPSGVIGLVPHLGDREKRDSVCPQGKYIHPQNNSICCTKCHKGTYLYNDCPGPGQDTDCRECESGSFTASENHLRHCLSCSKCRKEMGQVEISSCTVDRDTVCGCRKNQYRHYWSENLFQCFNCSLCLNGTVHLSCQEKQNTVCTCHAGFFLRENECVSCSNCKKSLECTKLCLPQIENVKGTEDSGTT


Biological target: T1, TNFR1
Test: yeast display SC50

| Binder | apparent Kd (screen) [nM] |
| --- | --- |
| K69P (designed binder) SMEEEVEKAAKEYEKKKKEAIEKHLEKLKAKDKEAAERFLKELEEAAKEYAKDEAKTMSEEEAKRRAKPYKEKVLLSELSEEEQKEIKEAEEKLVRTILKYVEEAAK | 22.2 |
| E61M (designed binder) SMEEEVEKAAKEYEKKKKEAIEKHLEKLKAKDKEAAERFLKELEEAAKEYAKDEAKTMSEMEAKRRAKKYKEKVLLSELSEEEQKEIKEAEEKLVRTILKYVEEAAK | 1.27 |
| R38G (designed binder) SMEEEVEKAAKEYEKKKKEAIEKHLEKLKAKDKEAAEGFLKELEEAAKEYAKDEAKTMSEEEAKRRAKKYKEKVLLSELSEEEQKEIKEAEEKLVRTILKYVEEAAK | 2.73 |
| K71R (designed binder) SMEEEVEKAAKEYEKKKKEAIEKHLEKLKAKDKEAAERFLKELEEAAKEYAKDEAKTMSEEEAKRRAKKYREKVLLSELSEEEQKEIKEAEEKLVRTILKYVEEAAK | 0.593 |
| E78T (designed binder) SMEEEVEKAAKEYEKKKKEAIEKHLEKLKAKDKEAAERFLKELEEAAKEYAKDEAKTMSEEEAKRRAKKYKEKVLLSTLSEEEQKEIKEAEEKLVRTILKYVEEAAK | 1.27 |
| E34C (designed binder) SMEEEVEKAAKEYEKKKKEAIEKHLEKLKAKDKCAAERFLKELEEAAKEYAKDEAKTMSEEEAKRRAKKYKEKVLLSELSEEEQKEIKEAEEKLVRTILKYVEEAAK | 1.16 |
| E103Y (designed binder) SMEEEVEKAAKEYEKKKKEAIEKHLEKLKAKDKEAAERFLKELEEAAKEYAKDEAKTMSEEEAKRRAKKYKEKVLLSELSEEEQKEIKEAEEKLVRTILKYVYEAAK | 1.86 |
| E49L (designed binder) SMEEEVEKAAKEYEKKKKEAIEKHLEKLKAKDKEAAERFLKELEEAAKLYAKDEAKTMSEEEAKRRAKKYKEKVLLSELSEEEQKEIKEAEEKLVRTILKYVEEAAK | 10.4 |
| F39D (designed binder) SMEEEVEKAAKEYEKKKKEAIEKHLEKLKAKDKEAAERDLKELEEAAKEYAKDEAKTMSEEEAKRRAKKYKEKVLLSELSEEEQKEIKEAEEKLVRTILKYVEEAAK | 7.07 |
| R96N (designed binder) SMEEEVEKAAKEYEKKKKEAIEKHLEKLKAKDKEAAERFLKELEEAAKEYAKDEAKTMSEEEAKRRAKKYKEKVLLSELSEEEQKEIKEAEEKLVNTILKYVEEAAK | 3 |
| L75D (designed binder) SMEEEVEKAAKEYEKKKKEAIEKHLEKLKAKDKEAAERFLKELEEAAKEYAKDEAKTMSEEEAKRRAKKYKEKVDLSELSEEEQKEIKEAEEKLVRTILKYVEEAAK | 5.84 |
| L28V (designed binder) SMEEEVEKAAKEYEKKKKEAIEKHLEKVKAKDKEAAERFLKELEEAAKEYAKDEAKTMSEEEAKRRAKKYKEKVLLSELSEEEQKEIKEAEEKLVRTILKYVEEAAK | 0.79 |
| K48E (designed binder) SMEEEVEKAAKEYEKKKKEAIEKHLEKLKAKDKEAAERFLKELEEAAEEYAKDEAKTMSEEEAKRRAKKYKEKVLLSELSEEEQKEIKEAEEKLVRTILKYVEEAAK | 0.446 |
| E3K (designed binder) SMKEEVEKAAKEYEKKKKEAIEKHLEKLKAKDKEAAERFLKELEEAAKEYAKDEAKTMSEEEAKRRAKKYKEKVLLSELSEEEQKEIKEAEEKLVRTILKYVEEAAK | 0.653 |
| F39W (designed binder) SMEEEVEKAAKEYEKKKKEAIEKHLEKLKAKDKEAAERWLKELEEAAKEYAKDEAKTMSEEEAKRRAKKYKEKVLLSELSEEEQKEIKEAEEKLVRTILKYVEEAAK | 1.05 |
| E54S (designed binder) SMEEEVEKAAKEYEKKKKEAIEKHLEKLKAKDKEAAERFLKELEEAAKEYAKDSAKTMSEEEAKRRAKKYKEKVLLSELSEEEQKEIKEAEEKLVRTILKYVEEAAK | 6.43 |
| E104W (designed binder) SMEEEVEKAAKEYEKKKKEAIEKHLEKLKAKDKEAAERFLKELEEAAKEYAKDEAKTMSEEEAKRRAKKYKEKVLLSELSEEEQKEIKEAEEKLVRTILKYVEWAAK | 0.869 |
| K23T (designed binder) SMEEEVEKAAKEYEKKKKEAIETHLEKLKAKDKEAAERFLKELEEAAKEYAKDEAKTMSEEEAKRRAKKYKEKVLLSELSEEEQKEIKEAEEKLVRTILKYVEEAAK | 0.446 |

Further lines, results first:

| apparent Kd (screen) [nM] | Binder |
| --- | --- |
| 0.49 | E19L (designed binder) SMEEEVEKAAKEYEKKKKLAIEKHLEKLKAKDKEAAERFLKELEEAAKEYAKDEAKTMSEEEAKRRAKKYKEKVLLSELSEEEQKEIKEAEEKLVRTILKYVEEAAK |
| 0.446 | T97Q (designed binder) SMEEEVEKAAKEYEKKKKEAIEKHLEKLKAKDKEAAERFLKELEEAAKEYAKDEAKTMSEEEAKRRAKKYKEKVLLSELSEEEQKEIKEAEEKLVRQILKYVEEAAK |
| 0.49 | E78C (designed binder) SMEEEVEKAAKEYEKKKKEAIEKHLEKLKAKDKEAAERFLKELEEAAKEYAKDEAKTMSEEEAKRRAKKYKEKVLLSCLSEEEQKEIKEAEEKLVRTILKYVEEAAK |
| 0.49 | L40Q (designed binder) SMEEEVEKAAKEYEKKKKEAIEKHLEKLKAKDKEAAERFQKELEEAAKEYAKDEAKTMSEEEAKRRAKKYKEKVLLSELSEEEQKEIKEAEEKLVRTILKYVEEAAK |
| 20.2 | E7F (designed binder) SMEEEVFKAAKEYEKKKKEAIEKHLEKLKAKDKEAAERFLKELEEAAKEYAKDEAKTMSEEEAKRRAKKYKEKVLLSELSEEEQKEIKEAEEKLVRTILKYVEEAAK |
| 12.5 | A46L (designed binder) SMEEEVEKAAKEYEKKKKEAIEKHLEKLKAKDKEAAERFLKELEELAKEYAKDEAKTMSEEEAKRRAKKYKEKVLLSELSEEEQKEIKEAEEKLVRTILKYVEEAAK |
| 12.5 | E86P (designed binder) SMEEEVEKAAKEYEKKKKEAIEKHLEKLKAKDKEAAERFLKELEEAAKEYAKDEAKTMSEEEAKRRAKKYKEKVLLSELSEEEQKPIKEAEEKLVRTILKYVEEAAK |
| 0.446 | A55M (designed binder) SMEEEVEKAAKEYEKKKKEAIEKHLEKLKAKDKEAAERFLKELEEAAKEYAKDEMKTMSEEEAKRRAKKYKEKVLLSELSEEEQKEIKEAEEKLVRTILKYVEEAAK |
| 0.718 | K64S (designed binder) SMEEEVEKAAKEYEKKKKEAIEKHLEKLKAKDKEAAERFLKELEEAAKEYAKDEAKTMSEEEASRRAKKYKEKVLLSELSEEEQKEIKEAEEKLVRTILKYVEEAAK |
| 2.73 | E7T (designed binder) SMEEEVTKAAKEYEKKKKEAIEKHLEKLKAKDKEAAERFLKELEEAAKEYAKDEAKTMSEEEAKRRAKKYKEKVLLSELSEEEQKEIKEAEEKLVRTILKYVEEAAK |
| 2.25 | I87L (designed binder) SMEEEVEKAAKEYEKKKKEAIEKHLEKLKAKDKEAAERFLKELEEAAKEYAKDEAKTMSEEEAKRRAKKYKEKVLLSELSEEEQKELKEAEEKLVRTILKYVEEAAK |
| 2.73 | K27P (designed binder) SMEEEVEKAAKEYEKKKKEAIEKHLEPLKAKDKEAAERFLKELEEAAKEYAKDEAKTMSEEEAKRRAKKYKEKVLLSELSEEEQKEIKEAEEKLVRTILKYVEEAAK |
| 1.54 | A63W (designed binder) SMEEEVEKAAKEYEKKKKEAIEKHLEKLKAKDKEAAERFLKELEEAAKEYAKDEAKTMSEEEWKRRAKKYKEKVLLSELSEEEQKEIKEAEEKLVRTILKYVEEAAK |
| 1.4 | L40D (designed binder) SMEEEVEKAAKEYEKKKKEAIEKHLEKLKAKDKEAAERFDKELEEAAKEYAKDEAKTMSEEEAKRRAKKYKEKVLLSELSEEEQKEIKEAEEKLVRTILKYVEEAAK |
| 1.16 | L76I (designed binder) SMEEEVEKAAKEYEKKKKEAIEKHLEKLKAKDKEAAERFLKELEEAAKEYAKDEAKTMSEEEAKRRAKKYKEKVLISELSEEEQKEIKEAEEKLVRTILKYVEEAAK |
| 0.539 | H24L (designed binder) SMEEEVEKAAKEYEKKKKEAIEKLLEKLKAKDKEAAERFLKELEEAAKEYAKDEAKTMSEEEAKRRAKKYKEKVLLSELSEEEQKEIKEAEEKLVRTILKYVEEAAK |
| 7.78 | K88P (designed binder) SMEEEVEKAAKEYEKKKKEAIEKHLEKLKAKDKEAAERFLKELEEAAKEYAKDEAKTMSEEEAKRRAKKYKEKVLLSELSEEEQKEIPEAEEKLVRTILKYVEEAAK |
